Measured values reported in paper PMC8809517, “Cofactor-independent RNA editing by a synthetic S-type PPR protein”.

T1: GFP-9S library array, motif 4 ND N98C;D124Q (synthetic construct, N98C;D124Q)
T1 chain: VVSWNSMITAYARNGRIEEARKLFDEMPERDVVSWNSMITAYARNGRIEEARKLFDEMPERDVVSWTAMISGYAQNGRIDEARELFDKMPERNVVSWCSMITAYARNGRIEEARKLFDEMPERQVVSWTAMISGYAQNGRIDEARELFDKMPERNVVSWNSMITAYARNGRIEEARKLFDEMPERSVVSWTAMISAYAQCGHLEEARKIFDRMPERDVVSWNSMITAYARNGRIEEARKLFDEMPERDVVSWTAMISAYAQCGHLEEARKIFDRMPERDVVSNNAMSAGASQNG

T2: GFP-9S library array, motif 4 ND N98P;D124G (synthetic construct, N98P;D124G)
T2 chain: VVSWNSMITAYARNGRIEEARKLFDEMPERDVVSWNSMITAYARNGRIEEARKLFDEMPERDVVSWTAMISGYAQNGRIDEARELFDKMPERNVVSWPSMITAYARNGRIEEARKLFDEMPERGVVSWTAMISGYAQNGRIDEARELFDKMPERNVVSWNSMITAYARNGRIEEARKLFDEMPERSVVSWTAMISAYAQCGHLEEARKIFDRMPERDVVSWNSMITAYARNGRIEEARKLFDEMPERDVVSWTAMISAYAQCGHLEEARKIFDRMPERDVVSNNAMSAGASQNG

T3: GFP-9S library array, motif 4 ND N98W;D124C (synthetic construct, N98W;D124C)
T3 chain: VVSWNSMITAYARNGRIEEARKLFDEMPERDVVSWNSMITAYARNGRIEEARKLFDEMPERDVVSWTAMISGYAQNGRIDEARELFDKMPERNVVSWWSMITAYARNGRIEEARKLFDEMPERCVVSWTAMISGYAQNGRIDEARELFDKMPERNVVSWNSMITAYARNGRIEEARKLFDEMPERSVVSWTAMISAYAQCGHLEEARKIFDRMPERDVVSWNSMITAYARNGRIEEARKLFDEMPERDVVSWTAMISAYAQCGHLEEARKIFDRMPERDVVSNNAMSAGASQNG

T4: GFP-9S library array, motif 4 ND N98F;D124Q (synthetic construct, N98F;D124Q)
T4 chain: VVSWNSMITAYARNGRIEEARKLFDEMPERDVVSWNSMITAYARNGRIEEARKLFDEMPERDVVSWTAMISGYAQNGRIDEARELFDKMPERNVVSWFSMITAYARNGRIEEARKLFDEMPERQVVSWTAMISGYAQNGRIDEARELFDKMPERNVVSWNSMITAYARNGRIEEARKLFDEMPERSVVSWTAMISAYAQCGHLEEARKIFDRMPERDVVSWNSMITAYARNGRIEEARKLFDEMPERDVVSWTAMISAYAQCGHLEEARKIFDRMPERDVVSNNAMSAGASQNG

T5: GFP-9S library array, motif 4 ND N98G;D124G (synthetic construct, N98G;D124G)
T5 chain: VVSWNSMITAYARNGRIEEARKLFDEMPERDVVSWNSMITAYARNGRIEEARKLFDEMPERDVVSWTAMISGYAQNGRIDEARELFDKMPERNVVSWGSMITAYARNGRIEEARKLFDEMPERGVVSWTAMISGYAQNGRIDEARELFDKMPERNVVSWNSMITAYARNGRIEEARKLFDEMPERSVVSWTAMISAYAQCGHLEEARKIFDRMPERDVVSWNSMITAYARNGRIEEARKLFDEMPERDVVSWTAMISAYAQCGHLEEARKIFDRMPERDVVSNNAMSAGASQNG


Tests used:
Experiment in all cases: high-throughput RNA pulldown from lysate on Ni-NTA beads; HRP: 50 mM Tris pH 8, 150 mM NaCl, 1 mM beta-mercaptoethanol, 50 ug/ml BSA, 3 ug/ml yeast RNA, 0.5% heparin; ITC and FP: Tris pH 8, 200 mM KCl, 5% glycerol; MST: 50 mM Tris pH 8, 200 mM NaCl, 1 mM DTT, BSA, heparin, 0.05% Tween 20
Settings in all cases: tags: N-terminal His-eGFP
[1] = target: T1, GFP-9S library array, motif 4 ND …
[2] = target: T2, GFP-9S library array, motif 4 ND …
[3] = target: T3, GFP-9S library array, motif 4 ND …
[4] = target: T4, GFP-9S library array, motif 4 ND …
[5] = target: T5, GFP-9S library array, motif 4 ND …

| Binder | Kd ([1]; label: 5' Cy5) [nM] | Kd ([2]; label: 5' Cy5) [nM] | Kd ([3]; label: 5' Cy5) [nM] | Kd ([4]; label: 5' Cy5) [nM] | Kd ([5]; label: 5' Cy5) [nM] | Kd ([1]; label: 5' IRDye 800CW) [nM] | Kd ([2]; label: 5' IRDye 800CW) [nM] | Kd ([3]; label: 5' IRDye 800CW) [nM] | Kd ([4]; label: 5' IRDye 800CW) [nM] | Kd ([5]; label: 5' IRDye 800CW) [nM] |
| --- | --- | --- | --- | --- | --- | --- | --- | --- | --- | --- |
| AUUACACGUGA (ssRNA) [Cy5-rpoA] | 127 | 345 | 79.4 | 158 | 92 |  |  |  |  |  |
| AUUAGACGUGA (ssRNA) [Cy5-rpoA-G] | 150 | 262 | 77.6 | 143 | 95.2 |  |  |  |  |  |
| AUUAAACGUGA (ssRNA) [IR-rpoA-A] |  |  |  |  |  | 177 | 735 | 181 | 419 | 49.9 |
| AUUAUACGUGA (ssRNA) [IR-rpoA-U] |  |  |  |  |  | 143 | 778 | 199 | 466 | 95.3 |
